Patent publication US20240358739A1, “COMPOSITION AND METHOD TO TREAT CACHEXIA” (THE TRUSTEES OF INDIANA UNIVERSITY, priority 2021, published 2024)

Experiments:
[1] = tested on: osteoclast precursor cells; experiment: Osteoclast differentiation assay, pre-osteoclast cultures exposed to rmIGFBP1, TRAP stain; assay type: cell-based, mice; conditions: 50 ng/mL recombinant IGFBP1, 48 h
Method: The quantification of osteoclast differentiation in pre-osteoclast cultures exposed to rmIGFBP1 and stained for TRAP (n=5) is shown in FIG. 6. Furthermore, quantification of osteoclast differentiation in pre-osteoclasts co-cultured with AML12 previously exposed to CRC and treated with anti-IGFBP1 antibody (n=5) is shown in FIG. 7. The osteoclast differentiation assay was conducted as follows:
Bone marrow cells were isolated from at least two 4-month-old wild-type male C57BL/6 mice by flushing the bone marrow out from both tibiae and femora with 10% FBS and 1% P/S-α-MEM. Cells were cultured for 48 h. Non-adherent cells were then collected and 14×10^4 cells/cm2 were seeded on 96-well plates and cultured with RANKL 80 ng/ml (PeproTech) and M-CSF 20 ng/ml (PeproTech) added to induce osteoclast differentiation, the media was changed every 2 days. After 3 days of differentiation, 50 ng/mL of recombinant IGFBP1 or Vehicle (Control) was added to the osteoclast differentiation media for 48 h, after which cells were fixed for staining. […] Images were acquired using Axio Observer. Z1 motorized microscope (Zeiss, Oberkochen, Germany).

C2C12 myotubes = experiment: C2C12 myotube size after exposure to recombinant IGFBP1; assay type: cell-based; conditions: recombinant IGFBP1 100 ng/ml, 48 hours
Method: (§1) C2C12 myotubes were produced by exposing fully confluent myoblasts to DMEM containing 2% horse serum, 2 mM L-glutamine and 1% P/S, replacing the media every other day for 5 days. At 5 days post differentiation, myotubes were exposed to recombinant IGFBP1 (100 ng/ml) or empty vehicle control for 48 hours. FIG. 9 presents the results.
For myotube size: Differentiated C2C12 myotubes were fixed in ice-cold acetone: methanol for ten minutes, blocked for 1 h at room temperature and incubated overnight at 4° C. with an anti-myosin heavy chain antibody (MF-20, 1:100, Developmental Studies Hybridoma Bank). The following day, myotubes were incubated for 1 h at room temperature with an AlexaFluor 594-labeled secondary antibody (A11032, 1:500; Invitrogen). Myotubes were observed under an Axio Observer.Z1 motorized microscope (Zeiss) and analysis was performed by measuring the diameter of the narrowest portion along the multi-nucleate fibers (n=600 fibers per condition) using ImageJ software.

HSMM myotubes = experiment: HSMM myotube atrophy after recombinant IGFBP1; assay type: cell-based, human
ITGB1 signaling = experiment: Western blotting of ITGB1 signaling in myotubes exposed to recombinant IGFBP1; assay type: cell-based
Method: as §1
For western blots (FIG. 9): Cell layer protein extracts were obtained by homogenizing entire well surface in ice-cold RIPA buffer [150 mM NaCl, 1.0% NP-40, 0.5% sodium deoxycholate, 0.1% SDS and 50 mM Tris (pH 8.0)] supplemented with inhibitor cocktails for proteases (11697498001, Roche) and phosphatases (78428, Thermo Fisher Scientific). Following a 10-min incubation on ice, cellular debris was removed by centrifugation (15 min, 14,000 g at 4° C.), the supernatant was collected and protein concentration was assessed using the BCA protein assay method (Thermo Fisher Scientific). Protein extracts (30 μg) were electrophoresed in 4-15% gradient SDS Criterion TGX precast gels (Bio-Rad) and transferred to nitrocellulose membranes (30 min at 100 V; Bio-Rad). […] Blots were again serially washed using PBST and then visualized and quantified using the Odyssey Infrared Imaging System (LI-COR Biosciences). […]

B1: recombinant IGFBP1: recombinant insulin-like growth factor binding protein 1 (protein)
chain: APQPWHCAPCTAERLGLCPPVPASCPEISRPAGCGCCPTCALPMGAACGVATARCAQGLSCRALPGEPRPLHALTRGQGACVPEPAAPATSTLFSSQHEEAKAAVVSADELSESPEMTEEQLLDSFHLMAPSREDQPILWNAISTYSSMRAREIADLKKWKEPCQRELYKVLERLAAAQQKAGDEIYKFYLPNCNKNGFYHSKQCETSLDGEAGLCWCVYPWSGKKIPGSLETRGDPNCHQYFNVHN
differentiation of osteoclast precursor cells [1]: sufficient to promote differentiation | differentiation of osteoclast precursor cells ([1]; listed as Recombinant IGFBP1): promoted | atrophy of C2C12 myotubes (C2C12 myotubes): promoting atrophy | atrophy of C2C12 myotubes (C2C12 myotubes; listed as Recombinant IGFBP1): promoted | atrophy of HSMM myotubes (HSMM myotubes): promoting atrophy | ERK phosphorylation (ITGB1 signaling): increased | FAK phosphorylation (ITGB1 signaling): increased
